B1: library; a variant is named by its letters at N, in order (parent)
chain: GCUGUCACCGGUGUAUUACCCUAGUGGUCGACCGGUCUGAUGAGUCUNNNNNNAGACGAAACAGC

± gives the standard deviation of the averaged measurements.

In data set [1] the parent is B1. Kind of data set: FACS-Seq fitted mean relative fluorescence mCherry/BFP without ligand (log10 relative fluorescence); ligand: hypoxanthine (xanthine aptamer); higher = higher reporter protein expression. The conditions noted are these: HEK293T, ligand present: no. The procedure, abridged:
(§1)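 Lentivirally transduced HEK293T libraries carried an mCherry reporter with the ribozyme switch and an EF1α-BFP marker. Transduced cells were enriched, then incubated with or without ligand for 48 h and sorted into 6 bins by mCherry/BFP. Genomic DNA from each bin was PCR-amplified, barcoded and sequenced on MiSeq. Fluorescence was the fitted normal mean of log10(mCherry/BFP) bin counts, scaled to five spiked-in control ribozymes.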

Variants of B1 are the subject of data set [2]. Kind of data set: normalized RNA/DNA level with ligand (relative to sTRSVctl = 100) (log10 (% of sTRSVctl)); ligand: hypoxanthine (xanthine aptamer); higher = less ribozyme self-cleavage, higher mRNA level. The conditions noted are these: ligand concentration (+) RNA-Seq: 5 mM, HEK293T, reporter: mCherry (pCS4076), ligand present: yes. The procedure, abridged:
(§2)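 Total RNA, extracted with EDTA 72 h after HEK293T cells were transfected with 4 µg per 6-well well of reporter-linked ribozyme switch library plasmids, was reverse-transcribed, amplified, barcoded and sequenced. Ligand, if used, was added 1 h before transfection. RNA level was derived from RNA reads divided by DNA reads and normalized to a spiked-in non-cleaving sequence or to the top sequences. This was multiplied by 100 and log10-transformed, with the top set of 25 sequences and a ≥100 DNA read minimum.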

In data set [3] the parent is B1. Kind of data set: normalized RNA/DNA level without ligand (relative to sTRSVctl = 100) (log10 (% of sTRSVctl)); ligand: hypoxanthine (xanthine aptamer); higher = less ribozyme self-cleavage, higher mRNA level. The conditions noted are these: HEK293T, reporter: mCherry (pCS4076), ligand present: no. In a few lines:
as §2

Variants of B1 are the subject of data set [4]. Kind of data set: FACS-Seq fitted mean relative fluorescence mCherry/BFP with ligand (log10 relative fluorescence); ligand: hypoxanthine (xanthine aptamer); ligand concentration (+) FACS-Seq: 5 mM; higher = higher reporter protein expression. The conditions noted are these: HEK293T, ligand present: yes. The procedure, abridged: as §1

Turning to AUAAAG, the “FACS-Seq fitted mean (log10)” value in data set [1] amounted to 0.43 ± 0.03; in data set [4], 0.678 ± 0.081. In data set [2], the “normalized RNA/DNA level with ligand (log10)” value is 1.87 ± 0.024. For the same variant, the “normalized RNA/DNA level without ligand (log10)” value in data set [3] is 1.51 ± 0.053.

Take AUAAAC: the results for the “FACS-Seq fitted mean (log10)” value in data set [1] and in data set [4] were 0.413 ± 0.047 and 0.517 ± 0.15, respectively. The “normalized RNA/DNA level with ligand (log10)” value in data set [2] came to 1.893 ± 0.0082. Moreover, the “normalized RNA/DNA level without ligand (log10)” value in data set [3] was found to be 1.81 ± 0.023.

Turning to AUAAAU, the figures for the “FACS-Seq fitted mean (log10)” value in data set [1] and in data set [4] were 0.431 ± 0.027 and 0.576 ± 0.017, respectively. In data set [2], the “normalized RNA/DNA level with ligand (log10)” value turned out to be 1.9 ± 0.035. Further, in data set [3], the “normalized RNA/DNA level without ligand (log10)” value amounted to 1.7593 ± 0.00014.

With GUACAG, the figures for the “FACS-Seq fitted mean (log10)” value in data set [1] and in data set [4] were 0.688 ± 0.084 and 0.818 ± 0.08, respectively. Besides, the “normalized RNA/DNA level with ligand (log10)” value in data set [2] was determined as 1.87 ± 0.071. Moreover, in data set [3], the “normalized RNA/DNA level without ligand (log10)” value came to 1.45 ± 0.07.

As for GUACAA, the “FACS-Seq fitted mean (log10)” value is -0.152 ± 0.025 in data set [1] and 0.27 ± 0.051 in data set [4]. For the same variant, the “normalized RNA/DNA level with ligand (log10)” value in data set [2] was 1.91 ± 0.035. In data set [3], the “normalized RNA/DNA level without ligand (log10)” value was 1.76 ± 0.064.

With UUAAGA, the “FACS-Seq fitted mean (log10)” value was 0.6835 ± 0.0045 in data set [1] and 0.618 ± 0.02 in data set [4]. Moreover, the “normalized RNA/DNA level with ligand (log10)” value in data set [2] was 1.884 ± 0.0019. The “normalized RNA/DNA level without ligand (log10)” value in data set [3] was 1.68 ± 0.059.

As to UUAAGG, the “FACS-Seq fitted mean (log10)” value in data set [1] was found to be 0.505 ± 0.031; in data set [4], 0.538 ± 0.077. In data set [2], the “normalized RNA/DNA level with ligand (log10)” value stood at 1.925 ± 0.015. Besides, the “normalized RNA/DNA level without ligand (log10)” value in data set [3] was determined as 1.77 ± 0.058.

Take GUAAUG: the results for the “FACS-Seq fitted mean (log10)” value in data set [1] and in data set [4] were 0.27 ± 0.022 and 0.529 ± 0.0072, respectively. Moreover, the “normalized RNA/DNA level with ligand (log10)” value in data set [2] is 1.853 ± 0.0059. Further, the “normalized RNA/DNA level without ligand (log10)” value in data set [3] is 1.52 ± 0.028.

Consider GUAAUU, for which the “FACS-Seq fitted mean (log10)” value was determined as 0.444 ± 0.086 in data set [1] and 0.229 ± 0.036 in data set [4]. For the same variant, in data set [2], the “normalized RNA/DNA level with ligand (log10)” value is 1.91 ± 0.047. The “normalized RNA/DNA level without ligand (log10)” value in data set [3] is 1.9 ± 0.025.

On to GUAAUC, for which the “FACS-Seq fitted mean (log10)” value in data set [1] stood at 0.801 ± 0.026; in data set [4], 0.81 ± 0.068. Also, the “normalized RNA/DNA level with ligand (log10)” value in data set [2] came to 1.95 ± 0.046. The “normalized RNA/DNA level without ligand (log10)” value in data set [3] was 1.756 ± 0.012.

Consider AUACAC, for which the figures for the “FACS-Seq fitted mean (log10)” value in data set [1] and in data set [4] were 0.399 ± 0.093 and 0.456 ± 0.1, respectively. Moreover, in data set [2], the “normalized RNA/DNA level with ligand (log10)” value is 1.915 ± 0.019. The “normalized RNA/DNA level without ligand (log10)” value in data set [3] was 1.762 ± 0.0072.

Regarding AUACAA, the “FACS-Seq fitted mean (log10)” value in data set [1] came out at 0.364 ± 0.062; in data set [4], 0.532 ± 0.013. Also, in data set [2], the “normalized RNA/DNA level with ligand (log10)” value stood at 1.9 ± 0.037. For the same variant, the “normalized RNA/DNA level without ligand (log10)” value in data set [3] turned out to be 1.76 ± 0.024.

Consider AUACAG, for which the “FACS-Seq fitted mean (log10)” value in data set [1] was found to be 0.1 ± 0.018; in data set [4], 0.561 ± 0.031. In data set [2], the “normalized RNA/DNA level with ligand (log10)” value turned out to be 1.814 ± 0.017. In addition, the “normalized RNA/DNA level without ligand (log10)” value in data set [3] is 1.45 ± 0.039.

Turning to AGUUCA, the figures for the “FACS-Seq fitted mean (log10)” value in data set [1] and in data set [4] were 0.179 ± 0.0096 and 0.4165 ± 0.0023, respectively. Also, in data set [2], the “normalized RNA/DNA level with ligand (log10)” value was 1.91 ± 0.034. Further, the “normalized RNA/DNA level without ligand (log10)” value in data set [3] was 1.802 ± 0.0084.

Take GGUGAU: the “FACS-Seq fitted mean (log10)” value was determined as 0.445 ± 0.047 in data set [1] and 0.5584 ± 0.0013 in data set [4]. Besides, the “normalized RNA/DNA level with ligand (log10)” value in data set [2] came out at 1.93 ± 0.039. In addition, in data set [3], the “normalized RNA/DNA level without ligand (log10)” value was 1.763 ± 0.012.

As for GGUGAG, the “FACS-Seq fitted mean (log10)” value in data set [1] is -0.242 ± 0.013; in data set [4], 0.303 ± 0.045. Moreover, in data set [2], the “normalized RNA/DNA level with ligand (log10)” value came to 1.77 ± 0.063. Further, the “normalized RNA/DNA level without ligand (log10)” value in data set [3] came out at 1.29 ± 0.086.

Take GGUGAC: the “FACS-Seq fitted mean (log10)” value in data set [1] turned out to be 0.507 ± 0.018; in data set [4] it was 0.543 ± 0.1. Moreover, in data set [2], the “normalized RNA/DNA level with ligand (log10)” value came out at 1.8808 ± 0.00054. Moreover, in data set [3], the “normalized RNA/DNA level without ligand (log10)” value was 1.798 ± 0.0044.
